Measured values as given in PMC6125642.

The substances below were run against FITC-labeled aP-C18 peptide (not stated (P. horikoshii and P. furiosus aP1 were both used)) (assay: fluorescence polarisation).

Substance | Kd [µM]
aABCE1 I170S (enzyme) | 68.1
aABCE1 V219S (enzyme) | 6.3
aABCE1-ΔN74 (domain or fragment) | 4.4

The remaining lines, values ahead:

Kd [µM] | Substance
46.3 | aABCE1 A223S (enzyme)
30.8 | aABCE1 R227A (enzyme)
83 | aABCE1 V174S (enzyme)
